Tested on: MS2 coat protein
Assay: apparent KD of MS2 coat protein; designed switch direction (-1 OFF switch, 1 ON switch): 1; higher = weaker reporter binding
How it was run: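 The buffer was Tris-HCl pH 7.5 with KCl, MgCl2, BSA, DTT, tRNA and Tween-20. In it, SNAP-549-labelled MS2 coat protein was titrated in doubling steps from 0.7 or 1.5 nM to 3 µM over chip-bound RNA switches transcribed by stalled E. coli RNA polymerase on Illumina chips. Apparent KD is the per-design median over clusters of curve fits to normalised fluorescence.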

[1] = input ligand: microRNA oligo, concentration not stated
[2] = Eterna round: R95, input ligand: FMN 200 uM
[3] = Eterna round: R95, input ligand: microRNA oligo, concentration not stated
[4] = Eterna round: R95, input ligand: none

Sequence | apparent KD of MS2 coat protein (input ligand: FMN 200 uM) [µM] | apparent KD of MS2 coat protein [1] [µM] | apparent KD of MS2 coat protein (input ligand: none) [µM] | apparent KD of MS2 coat protein [2] [µM] | apparent KD of MS2 coat protein [3] [µM] | apparent KD of MS2 coat protein [4] [µM]
UUAAUAAUGUUAGGAUAUACAUGAGGAAUCCUCGUAGAAGGAACAUGACAUGAGGAUCACCCAUGUAGCGCUCGAAAGAGCGCA [Mat - Same State NG 1 - JL mod - D48] (Eterna round: R96, puzzle: Same State NG 1) | 0.0256 | 0.0163 | 0.417 |  |  | 
UGUUGUUAAUUAGGAUAUGGUCACAUGAGGAUCACCCAUGUAAUGUCGAUGCUAUGUGGAUACGAUCAGAAGGAAUGGCUAACA [SameState NG2 #94] (Eterna round: R96, puzzle: Same State NG 2) | 0.0933 | 0.225 | 0.175 |  |  | 
GCUCGCGACGCAGGAUAUGGGUGCCUGUACAUGAGGAUCACCCAUGUUAAGGGACGGAAAACGAACCAGAAGGGCGUCACGAGC [Ceusdian] (Eterna round: R96, puzzle: Same State NG 2) | 0.0681 | 0.132 | 1.12 |  |  | 
GGCCAGAGUCAAGGAUAUGCUACCGUUUCGGUAGCAGAAGGUGAUCACAUGAGGAUCACCCAUGUUUACUGGGAGACCAUGGCC [JL SSNG1 3.69] (Eterna round: R96, puzzle: Same State NG 1) | 0.219 | 0.136 | 0.112 |  |  | 
UCUUGGUUUUUGCUCGUUUUUUGUGUUGAACAUGAGGAUCACCCAUGUAUUGUACGGUCCGAUUUAAUAAUGGUCCG [JMF 22] (puzzle: Sensor for hsa-mir-208a) |  |  |  | 0.0235 | 0.0144 | 0.0255
AGGCUCAGACGAGGAUAUGAUCAUGGCGCUUCGGCGCAUACAUGAGGAUCACCCAUGUAGGGUGAUCAGAAGGUGUCUGAGCCA [SSNG2/8-B1] (Eterna round: R96, puzzle: Same State NG 2) | 0.0921 | 0.505 | 1.21 |  |  | 
UACAAUCUAUCUGAGGAUAUCAUGAAAUAAACAUGAGGAUCACCCAUGUGCAGGAAAACUGCAUAUGAGAAGGCAGAUAGAUUGA [salish99_ss2_r3_018] (puzzle: Same State 2) |  |  |  | 0.0502 | 1.13 | 1.81
GAGAGAGGGUGAGGAUAUGCAGUAAUAAUGAUAGCAGAAGGCACAGACAUGAGGAUCACCCAUGUGGGAAUAAUCCAGAGAGAG [Parity 2 - Jieux - Same State NG 1] (Eterna round: R96, puzzle: Same State NG 1) | 0.291 | 0.177 | 0.305 |  |  | 
UUGCGGAAUUAAGGAUAUUGAGUACAUAUGUUUAACAUGAGGAUCACCCAUGUGGGUUGCGGUAUCGAGAAGGUAAAUUACUAC [salish99_SSNG2_r04_802] (Eterna round: R96, puzzle: Same State NG 2) | 0.13 | 0.0888 | 0.105 |  |  | 
GUCCGUACCACAGGAUAUCCUAGUCAUGAUCUAGGAGAAGGGUGGCCACAUGAGGAUCACCCAUGUGAAGUGCCAGAGGCACGA [MOD Xexeraed] (Eterna round: R96, puzzle: Same State NG 1) | 0.0352 | 0.046 | 0.0533 |  |  | 
UUACUCAUGUAAGGAUAUGCAGCCGAAACGGCUGCAGAAGGUACUAUAAUACAUGAGGAUCACCCAUGUCUCUAUUAUAAAGUU [Mat - Same State NG 1 - JL mod - D95] (Eterna round: R96, puzzle: Same State NG 1) | 0.0948 | 0.0434 | 0.0495 |  |  | 
GCUACCAUAGAAGCCAACAUGAGGAUCACCCAUGUAUGUUGGUAGGAUAUCGAUUGCAAAGCGAUCGAGAAGGGCUAAGGUAGC [Mat - Same State NG 3 - JL Mod - D83] (Eterna round: R96, puzzle: Same State NG 3) | 0.164 | 0.13 | 0.139 |  |  | 
AACAAGUUUUUGCUCGCUUAUAAGCAUGUACAUGAGGAUCACCCAUGUCAUGUACAAAGUCCAGCCUGAGCUGGACA [Reversing mir to lane 1] (puzzle: Sensor for hsa-mir-208a) |  |  |  | 0.0245 | 0.0155 | 0.0254
GUGGUGGGUUGAGGAUAUUGGUUGUUGUUGUUCCACAUGAGGAUCACCCAUGUGGGUUGUGGUUUUGAGAAGGUUGGUUGCUGG [salish99_SSNG2_r04_050] (Eterna round: R96, puzzle: Same State NG 2) | 0.0172 | 0.0142 | 0.0203 |  |  | 
UGAAUAGUGAUAGGAUAUACAUGAGGAAUCCUCGUAGAAGGAUCACGACAUGAGGAUCACCCAUGUAGCCGUCAGAAGACGGCA [Mat - Same State NG 1 - JL mod - D60] (Eterna round: R96, puzzle: Same State NG 1) | 0.45 | 0.345 | 2.61 |  |  | 
GUGGUGAAUUAAGGAUAUCGAGUCUAGAUGUUAAACAUGAGGAUCACCCAUGUGGGUUGCGGUAUCGAGAAGGUAAUUUACGGG [salish99_SSNG2_r04_507] (Eterna round: R96, puzzle: Same State NG 2) | 0.0254 | 0.0261 | 0.0472 |  |  | 
ACAUGAGAAAGAGGAUAUUUUGUACCUACAUGUGACAUGAGGAUCACCCAUGUGGUAAGUAUGAGAAAGAAGGCUUAGAUAUGU [Equivalence 13 - Jieux - Same State NG 2] (Eterna round: R96, puzzle: Same State NG 2) | 0.0206 | 0.0431 | 0.0617 |  |  | 
AUUUUUAAUGCAGGAUAUGAUUAACAUGAGGAUCACCCAUGUGGUGUUGUGAGUAAGGAGAGUGAUCAGAAGGGCAAUUUUUUU [JMF's solution 78] (Eterna round: R96, puzzle: Same State NG 2) | 0.731 | 0.226 | 0.433 |  |  | 
AAUUAAGAUCAAGGAUAUCACGUCGUUUAGACGUGAGAAGGUGAUCCAUACAUGAGGAUCACCCAUGUAUAACAUGAAUUAAUU [SSNG1/8-B3] (Eterna round: R96, puzzle: Same State NG 1) | 0.179 | 1.16 | 0.698 |  |  | 
UUGCUUCUCGUAGGAUAUGUAGGAUAUUCCUACAUGAGGAUCACCCAUGUUCGCAUGGAAGAAGGACAGAAGGACGAUCACCCU [pwkr ssNG2 2FMN + 1F5.10] (Eterna round: R96, puzzle: Same State NG 2) | 0.33 | 0.235 | 0.271 |  |  | 
AUUAAUUAAUUAAUACAUGAGGAUCACCCAUGUAAUAAGAUCUAGGAUAUCAGCUCGAUUAGAGCUGAGAAGGAGAUCACAUGU [SSNG3/17-A2] (Eterna round: R96, puzzle: Same State NG 3) |  | 0.0363 |  |  |  | 
AAACACGGCAAAACGCCGUGACAUGAGGAUCACCCAUGUACACAGGAUAUCAUGGCAAAACACCAUGAGAAGGGUGAUCAAGAC [Zaleala] (Eterna round: R96, puzzle: Same State NG 3) | 0.0307 | 0.0261 | 0.0349 |  |  | 
GUAAUCGUUAUAGGAUAUCAUGAGGAUUACCCAUGAGAAGGGUGAUUCCGAUCCAUAUUCAGAAAAUGAAUGUGGAUAGAUUGC [Omei NG1 A v1] (Eterna round: R96, puzzle: Same State NG 1) | 0.123 | 0.117 | 0.26 |  |  | 
CCUUAGUACAAUUUAGAUCUACAUGAGGAUCACCCAUGUACUGAGGAUAUCAGCUCGAAUAGAGCUGAGAAGGCAGAAGUACUU [SSNG3/7-A1] (Eterna round: R96, puzzle: Same State NG 3) | 0.0603 | 0.154 | 0.13 |  |  | 
GGAAUAUGAUGUUACAUGAGGAUCACCCAUGUAGUGAUAACUAAGGAUAUCUGUUAAGAUAAUUAAGAGAAGGUAGGAUCAUAA [AK SSNG3-V2-8.2] (Eterna round: R96, puzzle: Same State NG 3) | 0.0347 | 0.0375 | 0.0424 |  |  | 
UGUUGUAUUACAGGAUAUCUAGUAUUUUUAUUGAGAGAAGGGUAUUCACAUGAGGAUCACCCAUGUAUAUACGAGGAAGUUGUG [JMF's solution 55] (Eterna round: R96, puzzle: Same State NG 1) |  | 0.0348 |  |  |  | 
UAUGACUUACAAGGAUAUUAAUAACAUGAGGAUCACCCAUGUGGCUGUGUGUGUUAGAUAAGCUAUAAGAAGGUGUGUGUGUUU [JR_SSNG2_Sub095] (Eterna round: R96, puzzle: Same State NG 2) | 0.0662 | 0.244 | 0.223 |  |  | 
GGAGCCGGCACCGAGGAUAUUCAUAUUAAAACAUGAGGAUCACCCAUGUAGCUCGAAAGAGCUUGGGAGAAGGCGGAUCGGCUCG [Xeonanis - 29] (Eterna round: R96, puzzle: Same State 2) | 0.0373 | 0.322 | 0.633 |  |  | 
GUUAAACAUGAGGAUCACCCAUGUAAUAAUAUGGGAGGAUAUCAGAAAGUAUGUAUGAAAUGAGAAGGCCUAAUUG [Mat - Same State 1 - Mod of Eli - D78] (puzzle: Same State 1) |  |  |  | 0.0579 | 0.154 | 0.124
CAAGGACGGACACAGGAUAUCCUCACCUACACAUGAGGAUCACCCAUGUCAUAAAAGAUGGUGCAGGAGAAGGGUGCGGCGUCUA [Bibesoxe] (puzzle: Same State 2) |  |  |  | 0.0107 | 0.00962 | 0.00999

Reference: the supplement of paper PMC9170038
